Broadly, the pKd is the Kd on a negative log10 scale, so that one unit is a factor of ten.

One assay deals with HLA-B*07:02. As to the kind of experiment: IEDB peptide-MHC binding, purified MHC/competitive/radioactivity; filed as Kd, often an IC50 or EC50 that approximates it; ≥ and ≤ were set here for values at or beyond the usual limits of such assays.
The target of another assay is HLA-B*35:01. Described as above.
For a further assay, the target named is HLA-B*51:01. The description is as above.
A further assay addresses HLA-B*53:01. The description is as above.
The target of a further assay is HLA-B*54:01. The assay is described as above.
The target of assay [1] is HLA-B*18:01. Described as above.
A further assay has as its target HLA-B*40:01. The description is as above.
In the next assay the target is HLA-B*40:02. The description is as above.
In a further assay the target is HLA-B*44:02. The assay is described as above.
For a further assay, the target named is HLA-B*44:03. Described as above.
For a further assay, the target named is HLA-B*45:01. The assay is described as above.
A further assay deals with HLA-B*46:01. As to the kind of experiment: IEDB peptide-MHC binding, purified MHC/direct/fluorescence; filed as Kd, often an IC50 or EC50 that approximates it; ≥ and ≤ were set here for values at or beyond the usual limits of such assays. Conditions: source organism: Yellow fever virus.
In assay [2] the target is HLA-B*18:01. The description is as above. Conditions: source organism: Yellow fever virus 17D.
Where [3] appears, read: source organism: Vaccinia virus WR.
[4] abbreviates: source organism: SARS coronavirus Tor2.
Where [5] appears, read: source organism: Mammarenavirus juninense.
Where [6] appears, read: source organism: Triticum aestivum.
Where [7] appears, read: source organism: Lymphocytic choriomeningitis virus (strain Armstrong).
Setting [8] is: source organism: Mammarenavirus brazilense.
The mark [9] stands for this setting: source organism: Mammarenavirus guanaritoense.
Setting [10] is: source organism: Mammarenavirus lassaense.

pKd: −log10 of the molar value.

IPDELIDVL: the negative-log Kd (pKd) with HLA-B*07:02 (setting [3]) is 6.43; with HLA-B*35:01 (setting [3]), 6.59; with HLA-B*51:01 (setting [3]), 5.66; in the assay with HLA-B*53:01 (setting [3]), 6.34; with HLA-B*54:01 (setting [3]) it was 4.91.

In the case of APATVCGPKL, the pKd with HLA-B*07:02 (setting [4]) is 7.52; with HLA-B*35:01 (setting [4]) it was not above 4.16; in the assay with HLA-B*51:01 (setting [4]), 5.15; in the assay with HLA-B*53:01 (setting [4]), not above 4.30; with HLA-B*54:01 (setting [4]), not above 4.16.

On to REFLTRNPAW, for which the negative-log Kd (pKd) with HLA-B*18:01 [1] (setting [4]) is not above 4.48; in the assay with HLA-B*40:01 (setting [4]), 7.30; in the assay with HLA-B*40:02 (setting [4]) it was 7.63; in the assay with HLA-B*44:02 (setting [4]), 8.40; in the assay with HLA-B*44:03 (setting [4]) it was 8.23; with HLA-B*45:01 (setting [4]) it was 6.24.

Turning to HDWHLDPPF, the negative-log Kd (pKd) with HLA-B*18:01 [1] (setting [5]) was 5.62; in the assay with HLA-B*40:01 (setting [5]) it was not above 4.14; in the assay with HLA-B*40:02 (setting [5]), 7.66; in the assay with HLA-B*44:02 (setting [5]) it was 4.73; with HLA-B*44:03 (setting [5]) it was 5.10; with HLA-B*45:01 (setting [5]), not above 4.11.

With SEYKGPVTDV, the negative logarithm of the Kd (pKd) was not above 4.15 with HLA-B*18:01 [1] (setting [4]); 6.00 in the assay with HLA-B*40:01 (setting [4]); 7.64 with HLA-B*40:02 (setting [4]); 4.77 with HLA-B*44:02 (setting [4]); 6.10 with HLA-B*44:03 (setting [4]); 7.43 in the assay with HLA-B*45:01 (setting [4]).

Turning to AEVVKLPSRY, the negative-log Kd (pKd) in the assay with HLA-B*18:01 [1] (setting [4]) was 5.30; with HLA-B*40:01 (setting [4]), 4.82; in the assay with HLA-B*40:02 (setting [4]), not above 4.65; with HLA-B*44:02 (setting [4]), 6.84; with HLA-B*44:03 (setting [4]), 7.12; with HLA-B*45:01 (setting [4]) it was 5.01.

VLIEVNPPF had a negative logarithm of the Kd (pKd) with HLA-B*46:01 not above 4.70.

As to LPDDFMGCVL, the negative logarithm of the Kd (pKd) is 6.98 with HLA-B*07:02 (setting [4]); 6.45 with HLA-B*35:01 (setting [4]); 7.01 with HLA-B*51:01 (setting [4]); 6.30 in the assay with HLA-B*53:01 (setting [4]); 5.26 in the assay with HLA-B*54:01 (setting [4]).

Turning to YPSGQGSF, the negative-log Kd (pKd) with HLA-B*07:02 (setting [6]) was 4.95; in the assay with HLA-B*35:01 (setting [6]), 5.31; with HLA-B*51:01 (setting [6]) it was 6.00; with HLA-B*53:01 (setting [6]) it was 5.29; in the assay with HLA-B*54:01 (setting [6]), 4.88.

Take SEQGEFKLL: the pKd in the assay with HLA-B*18:01 [2] is 6.06.

Regarding KDLQRLRSL, the negative logarithm of the Kd (pKd) is 5.23 with HLA-B*18:01 [1] (setting [7]); 5.35 in the assay with HLA-B*40:01 (setting [7]); 6.78 with HLA-B*40:02 (setting [7]); not above 4.36 with HLA-B*44:02 (setting [7]); not above 4.18 with HLA-B*44:03 (setting [7]); not above 4.37 with HLA-B*45:01 (setting [7]).

On to APFMSDLQF, for which the pKd with HLA-B*07:02 (setting [8]) was 6.83; with HLA-B*35:01 (setting [8]), 8.12; in the assay with HLA-B*51:01 (setting [8]) it was not above 4.41; with HLA-B*53:01 (setting [8]), 7.50; in the assay with HLA-B*54:01 (setting [8]), not above 4.44.

Take AEAYCTGML: the pKd in the assay with HLA-B*18:01 [1] (setting [9]) is not above 4.11; with HLA-B*40:01 (setting [9]), 6.94; with HLA-B*40:02 (setting [9]), 6.95; in the assay with HLA-B*44:02 (setting [9]) it was 6.74; in the assay with HLA-B*44:03 (setting [9]), 6.46; with HLA-B*45:01 (setting [9]), 5.86.

As for AEGSRGGSQA, the negative-log Kd (pKd) with HLA-B*18:01 [1] (setting [4]) was not above 4.15; in the assay with HLA-B*40:01 (setting [4]) it was not above 4.55; with HLA-B*40:02 (setting [4]), 4.73; with HLA-B*44:02 (setting [4]), 5.07; in the assay with HLA-B*44:03 (setting [4]), 4.84; with HLA-B*45:01 (setting [4]), 6.69.

As for HESFDLAGLF, the pKd is 5.94 in the assay with HLA-B*18:01 [1] (setting [5]); 5.70 in the assay with HLA-B*40:01 (setting [5]); 6.36 in the assay with HLA-B*40:02 (setting [5]); 6.76 with HLA-B*44:02 (setting [5]); 6.11 in the assay with HLA-B*44:03 (setting [5]); 5.75 with HLA-B*45:01 (setting [5]).

As for IPFNVVTAM, the pKd with HLA-B*07:02 (setting [10]) is 7.73; in the assay with HLA-B*35:01 (setting [10]), 8.28; with HLA-B*51:01 (setting [10]), 5.37; with HLA-B*53:01 (setting [10]), 7.13; with HLA-B*54:01 (setting [10]), 6.30.

Take KDCVMYASAL: the negative-log Kd (pKd) in the assay with HLA-B*18:01 [1] (setting [4]) is not above 4.15; with HLA-B*40:01 (setting [4]), not above 4.22; in the assay with HLA-B*40:02 (setting [4]) it was 5.48; with HLA-B*44:02 (setting [4]) it was 4.97; with HLA-B*44:03 (setting [4]), 4.92; with HLA-B*45:01 (setting [4]) it was not above 4.15.

With QELGHEDLM, the negative logarithm of the Kd (pKd) is not above 4.50 in the assay with HLA-B*18:01 [1] (setting [4]); 5.26 with HLA-B*40:01 (setting [4]); 5.52 with HLA-B*40:02 (setting [4]); 4.81 with HLA-B*44:02 (setting [4]); 5.43 with HLA-B*44:03 (setting [4]); 5.56 with HLA-B*45:01 (setting [4]).
